PMC8867573

Assays:
Experiment in all cases: purified protein
purified protein [1] = substrate: CCn1c(=NN=c2sc3cc(S(=O)(=O)O)ccc3n2CC)sc2cc(S(=O)(=O)O)ccc21; details: pH 5.0, 42 °C, 0.1-25 mM substrate
purified protein [2] = substrate: COc1cccc(OC)c1O; format: biochemical, Streptomyces coelicolor; details: pH 8.0, 42 °C, 0.25-15 mM substrate
purified protein [3] = substrate: COc1cc(-c2cc(OC)c(O)c(OC)c2)cc(OC)c1O; format: biochemical, Streptomyces coelicolor; details: pH 8.5, 42 °C, 0.025-2 mM substrate

B1: ScSLAC (small laccase, SLAC) (Streptomyces coelicolor A3(2); M298L) (protein)
chain: AKGITARTAPAGGEVRHLKMYAEKLADGQMGYGFEKGKASVPGPLIEVNEGDTLHIEFTNTMDVRASLHVHGLDYEISSDGTAMNKSDVEPGGTRTYTWRTHKPGRRDDGTWRPGSAGYWHYHDHVVGTEHGTGGIRNGLYGPVIVRRKGDVLPDATHTIVFNDMTINNRKPHTGPDFEATVGDRVEIVMITHGEYYHTFHMHGHRWADNRTGILTGPDDPSRVIDNKITGPADSFGFQIIAGEGVGAGAWMYHCHVQSHSDMGLVGLFLVKKPDGTIPGYEPHEHGGATAKSGESGEPTGGAAAHEHEH
Purified protein [1]
  Km: 5000 ± 220 µM
  kcat: 9.3 s⁻¹
Purified protein [2]
  Km: 1300 ± 90 µM
  kcat: 1.5 s⁻¹
  kcat/Km: kcat/Km = 1.2 × 10^3 s^–1 M^–1

B2: ScSLAC (small laccase, SLAC) (Streptomyces coelicolor A3(2); M198F/M298F) (protein)
chain: AKGITARTAPAGGEVRHLKMYAEKLADGQMGYGFEKGKASVPGPLIEVNEGDTLHIEFTNTMDVRASLHVHGLDYEISSDGTAMNKSDVEPGGTRTYTWRTHKPGRRDDGTWRPGSAGYWHYHDHVVGTEHGTGGIRNGLYGPVIVRRKGDVLPDATHTIVFNDFTINNRKPHTGPDFEATVGDRVEIVMITHGEYYHTFHMHGHRWADNRTGILTGPDDPSRVIDNKITGPADSFGFQIIAGEGVGAGAWMYHCHVQSHSDMGFVGLFLVKKPDGTIPGYEPHEHGGATAKSGESGEPTGGAAAHEHEH
Purified protein [1]
  Km: 1100 ± 40 µM
  kcat: 3.9 s⁻¹
Purified protein [2]
  Km: 1100 ± 80 µM
  kcat: 0.8 s⁻¹
  kcat/Km: kcat/Km = 0.7 × 10^3 s^–1 M^–1
Purified protein [3]
  Km: 100 ± 20 µM
  kcat: 5.6 s⁻¹
  kcat/Km: kcat/Km = 5.6 × 10^4 s^–1 M^–1

B3: ScSLAC (small laccase, SLAC) (Streptomyces coelicolor A3(2)) (protein)
chain: AKGITARTAPAGGEVRHLKMYAEKLADGQMGYGFEKGKASVPGPLIEVNEGDTLHIEFTNTMDVRASLHVHGLDYEISSDGTAMNKSDVEPGGTRTYTWRTHKPGRRDDGTWRPGSAGYWHYHDHVVGTEHGTGGIRNGLYGPVIVRRKGDVLPDATHTIVFNDMTINNRKPHTGPDFEATVGDRVEIVMITHGEYYHTFHMHGHRWADNRTGILTGPDDPSRVIDNKITGPADSFGFQIIAGEGVGAGAWMYHCHVQSHSDMGMVGLFLVKKPDGTIPGYEPHEHGGATAKSGESGEPTGGAAAHEHEH
Purified protein [1]
  Km: 7300 ± 260 µM
  kcat: 38.6 s⁻¹
Purified protein [3]
  Km: 300 ± 50 µM
  kcat: kcat = 11.3 s^–1
  kcat/Km: kcat/Km = 3.8 × 10^4 s^–1 M^–1

B4: ScSLAC (small laccase, SLAC) (Streptomyces coelicolor A3(2); M298F) (protein)
chain: AKGITARTAPAGGEVRHLKMYAEKLADGQMGYGFEKGKASVPGPLIEVNEGDTLHIEFTNTMDVRASLHVHGLDYEISSDGTAMNKSDVEPGGTRTYTWRTHKPGRRDDGTWRPGSAGYWHYHDHVVGTEHGTGGIRNGLYGPVIVRRKGDVLPDATHTIVFNDMTINNRKPHTGPDFEATVGDRVEIVMITHGEYYHTFHMHGHRWADNRTGILTGPDDPSRVIDNKITGPADSFGFQIIAGEGVGAGAWMYHCHVQSHSDMGFVGLFLVKKPDGTIPGYEPHEHGGATAKSGESGEPTGGAAAHEHEH
Purified protein [1]
  Km: 4100 ± 240 µM
  kcat: 3.7 s⁻¹
Purified protein [2]
  Km: 1200 ± 190 µM
  kcat: 0.7 s⁻¹
  kcat/Km: kcat/Km = 0.6 × 10^3 s^–1 M^–1
Purified protein [3]
  Km: 300 ± 50 µM
  kcat: 5.4 s⁻¹
  kcat/Km: kcat/Km = 1.8 × 10^4 s^–1 M^–1
